In the series the target is T1, GST-FOXD3 (Mus musculus, UniProt Q61060 1-465).
T1 sequence: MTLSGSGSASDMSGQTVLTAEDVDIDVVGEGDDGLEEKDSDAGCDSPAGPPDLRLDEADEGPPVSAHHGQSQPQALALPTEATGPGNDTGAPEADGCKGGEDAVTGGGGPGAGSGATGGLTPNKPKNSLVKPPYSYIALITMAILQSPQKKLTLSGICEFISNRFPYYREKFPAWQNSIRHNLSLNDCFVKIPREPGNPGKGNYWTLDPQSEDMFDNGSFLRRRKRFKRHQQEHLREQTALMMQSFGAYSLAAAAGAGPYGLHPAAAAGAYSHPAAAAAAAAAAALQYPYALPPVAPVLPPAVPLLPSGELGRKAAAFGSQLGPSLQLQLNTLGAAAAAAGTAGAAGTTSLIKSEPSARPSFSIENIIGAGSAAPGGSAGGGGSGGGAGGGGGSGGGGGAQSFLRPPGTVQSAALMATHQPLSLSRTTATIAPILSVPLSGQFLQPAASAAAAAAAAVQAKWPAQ
Description: EMSA.

B1: MERVL-LTR (dsDNA)
DNA 1: AGACTCAAAGCAAAACAGGCTCCTAGAGGGGAGGT
DNA 2: ACCTCCCCTCTAGGAGCCTGTTTTGCTTTGAGTCT
For B1, the binding result is listed as “binds”.

(Values after doi:10.1101/2021.05.01.442081.)
